Like-named read-outs stand apart in the source and are kept apart here.
Experiments:
[1] = target: T1, recombinant human ErbB3/Fc fusion protein (human, UniProt P21860 20-643); test: SPR Biacore T100, 25 C; antibody captured on anti-mouse IgG, rhErbB3-Fc injected
T1 construct: Bought (R&D Systems, Cat. No. 348-RB); the NRG1-α1 assay names Cat. No. 4518-RB instead; also called rhErbB3-Fc; rhErbB3/Fc; not shown: Fc portion of the bought fusion protein
Experimental: Rabbit anti-mouse IgGs (Biacore, Cat. No. BR-1008-38) were immobilized on carboxymethylated dextran CM4 sensor chips (Biacore, Cat. No. BR-1005-34) by amine coupling (BIAcore, Cat. No. BR-1000-50) using a standard coupling protocol according to vendor's instructions. The analyses were performed at 25° C., using PBS (Invitrogen, Cat. No. 14040-133) containing 0.05% surfactant P20 (Biacore, Cat. No. BR-1000-54) as running buffer.
The antibodies were captured in individual flow cells at a flow rate of 10 μl/minute. Injection time was varied for each antibody to yield an Rₘₐₓ between 30 and 60 RU. […] The dissociation phase was monitored for up to 3600 seconds. The surface was then regenerated with two 60-seconds injection of 10 mM Glycine-HCl, pH 1.7 (made from Glycine pH 1.5 (Biacore, Cat. No. BR-1003-54) and pH 2.0 (Biacore, Cat. No. BR-1003-55)) at a flow rate of […].
Kinetic parameters were determined using the kinetic function of the BIAevaluation software (Biacore) with double reference subtraction. Kinetic parameters for each antibody, kₐ (association rate constant), kd (dissociation rate constant) and KD (equilibrium dissociation constant) were determined.

human ErbB3 [2] = target: T2, human ErbB3 (human, UniProt P21860 20-1342); test: cell-based or functional assay
human ErbB3 [3] = target: T2, human ErbB3; test: cell-based or functional assay; remark: listed apart in the source
[4] = target: T1, recombinant human ErbB3/Fc fusion …; test: ECL (MSD): NRG1-β1 (0.25 µg/ml) binding to plate-coated rhErbB3/Fc after antibody dilutions; the antibody enhances the NRG1-β1 signal
Experimental: MA2400 96-well standard binding plates (Meso Scale Discovery, Cat. No. L15XA-6) were coated with 50 μl of 0.5 μg/mL rhErbB3/Fc (R&D systems, Cat. No. 348-RB) in PBS (Invitrogen, Cat. No. 14040-133) for overnight at 4° C. with no agitation. The plates then were washed 3 times with PBS+0.1% Tween20 (Sigma P5927) and blocked with 200 μl of PBS containing 5% BSA (Sera Care Life Sciences, Cat. No. AP-4510-80) for 1.5 hour at room temperature. After washing the plates 3 times with PBS, 25 μl of the antibody dilutions were added to the plates for another hour at room temperature with agitation. […] The plates then were washed 3 times with PBS, and 150 μl of 1× read buffer (Meso Scale Discovery, Cat. No. R92TC-1) was added to each well before the plates were analyzed on a Sector® Imager 2400 (Meso Scale Discovery) instrument.

[5] = target: T3, recombinant human ErbB3 monomeric protein (cleaved rhErbB3) (human, UniProt P21860 20-643, limits assumed); test: SPR Biacore 37 C; purified antibody captured on anti-human Fc, cleaved rhErbB3 0.3125-5.0 nM
T3 construct: Monomer made by protease cleavage of the Fc fusion; also called Monomeric ErbB3
Experimental: The analyses were performed at 37° C. using PBS (Invitrogen, Catalog No. 14040-133) containing 0.05% surfactant P20 (Biacore, Catalog No. BR-1000-54) as running buffer.
The antibodies were captured in individual flow cells at a flow rate of […]. Injection time was varied for each antibody to yield an Rₘₐₓ between 30 and 60 RU. […] The dissociation phase was monitored for up to 1200 seconds. The surface was then regenerated with two 60 second injections of Glycine pH 2.25 (made from Glycine pH 2.0 (Biacore, Catalog No. BR-1003-55) and pH 2.5 (Biacore, Catalog No. BR-1003-56)) at […].
The binding affinities and kinetics of certain purified monoclonal antibodies were also determined. To further characterize certain antibodies, the surface plasmon resonance experiments described above were conducted using concentrations of cleaved rhErbB3 between 0.3125 nM and 5.0 nM (a 2-fold serial dilution).

[6] = target: T3, recombinant human ErbB3 monomeric …; test: SPR Biacore 37 C; antibody captured on anti-human Fc, cleaved rhErbB3 (monomer) injected
[7] = target: T1, recombinant human ErbB3/Fc fusion …; test: ECL competition; inhibition of NRG1-β1 binding to plate-coated rhErbB3/Fc
Experimental: (§1) Multi-array 96-well standard binding plates (Meso Scale Discovery, Cat. No. L15XA-3) were coated with 50 μl of 0.5 μg/mL rhErbB3/Fc (R&D systems, Cat. No. 348-RB) in PBS (Invitrogen, Cat. No. 14040-133) for one hour at room temperature with no agitation. The plates then were washed three times with PBS+0.1% Tween20 (Sigma P5927) and blocked with 200 μl of 100% Horse Serum, heat inactivated (GIBCO, Cat. No. 26050-088) for 1.5 hours at room temperature. After washing the plates three times with PBS+0.1% Tween, 25 μl of the antibody dilutions were added to the plates for another hour at room temperature with agitation. […] The plates then were washed three times with PBS+0.1% Tween, and 150 μl of 1× read buffer (Meso Scale Discovery, Cat. No. R92TC-1) was added to each well before the plates were analyzed on a Sector® Imager 2400 (Meso Scale Discovery) instrument.

[8] = target: T1, recombinant human ErbB3/Fc fusion …; test: ECL (MSD) competition: rhErbB3/Fc coated on the plate, antibody dilutions, then NRG1-β1 at 0.25 µg/ml; bound NRG1-β1 detected
Experimental: as §1

[9] = target: T1, recombinant human ErbB3/Fc fusion …; test: as above; remark: listed apart in the source

Row | Binder | Kd [1] [nM] | koff [1] [s⁻¹] | kon [1] [M⁻¹ s⁻¹] | inhibition of NRG1-β1 induced phosphorylation of Akt in MCF7 and DU145 cells (ELISA) (human ErbB3 [2]) [%] | inhibition of NRG1-β1 induced phosphorylation of ErbB3 in SKBR-3 cells (ELISA, 5 µg/ml antibody) (human ErbB3 [2]) [%] | IC50, NRG1-β1 dependent proliferation of MCF7 cells (MTT) (human ErbB3 [3]) [nM] | EC50 (read off the curve) [4] [nM] | Kd [5] [nM] | koff [5] [s⁻¹] | kon [5] [M⁻¹ s⁻¹] | Kd [6] [nM] | koff [6] [s⁻¹] | kon [6] [M⁻¹ s⁻¹] | inhibition of phosphorylation of ErbB3 in exponentially growing SKBR-3 cells (ELISA) (human ErbB3 [2]) [%] | IC50 [7] [nM] | IC50 (read off the curve) [8] [nM] | IC50 (read off the curve) [9] [nM]
1 | 09D03 (antibody, mouse IgG2b, kappa, V domains shown, Murine IgG2b/kappa, from hybridoma; also called anti-hErbB3 monoclonal antibody 09D03) VH: QVTLKESGPGILRPSQTLSLTCSFSGFSLSTFGLSVGWIRQPSGKGLEWLAHIWWDDDKYYNPALKSRLTISKDTSKNQVFLKIANVDTADTATYYCARIGADALPFDYWGQGTTLTVSS VL: DIVLTQTAPSVPVTPGESVSISCRSSKSLLHSNGNTYLYWFLQRPGQSPQLLIYRMSNLASGVPDRFSGSGSGTAFTLRISRVEAEDVGVYYCMQHLEYPFTFGSGTKLEIKR | 0.08 | 2e-05 | 270000 | ≥ 80 | ≥ 50 | 2.28 | ~1 | – | – | – | – | – | – | – | – | – | –
2 | Sh24C05-31 N62S IgG1 (antibody, Humanized, human IgG1/kappa) heavy: not shown light: DIQMTQSPSSLSASVGDRVTITCRASQEISGYLSWYQQKPGKAPKRLIYAASTLDSGVPSRFSGSGSGTEFTLTISSLQPEDFATYYCLQYDSYPYTFGQGTKLEIKRTVAAPSVFIFPPSDEQLKSGTASVVCLLNNFYPREAKVQWKVDNALQSGNSQESVTEQDSKDSTYSLSSTLTLSKADYEKHKVYACEVTHQGLSSPVTKSFNRGEC | – | – | – | – | – | – | – | 0.076 | 0.00027 | 3.5e+06 | 0.076 | 0.00027 | 3.5e+06 | ≥ 50 | 0.124 | ~0.1 | –
3 | U1-53 (antibody, V domains shown) VH: EVQLVESGGGLVQPGGSLRLSCAASGFTFSIYSMNWVRQAPGKGLEWVSYISSSSSTIYYADSVKGRFTISRDNAKNSLYLQMNSLRDEDTAVYYCARDRGDFDAFDIWGQGTMVTVSS VL: DIQMTQSPSSLSASVGDRVTITCQASQDITNYLNWYQQKPGKAPKLLIYDASNLETGVPSRFSGSGSGTDFTFTISSLQPEDIATYNCQQCENFPITFGQGTRLEIK | – | – | – | – | – | – | – | – | – | – | – | – | – | – | 0.113 | – | ~0.1
